Data: patent US10017546B2 (KOREA ADVANCED INSTITUTE OF SCIENCE AND TECHNOLOGY, priority 2015, dated 2018)
Read-outs that look alike come from different tables or passages of the source.

Key:
biotin-AP = assay: Gel-based off-rate measurement against biotin-AP peptide; type: binding; settings: 37° C., excess biotin
biotin-DNA = assay: Gel-based off-rate measurement against biotin-DNA-fluorescein; type: binding; settings: for percentage of dissociated biotin conjugate after 10 h incubation with excess biotin: 23° C.
biotin-protein G = assay: Gel-based off-rate measurement against biotin-protein G; type: binding; settings: 37° C., excess biotin
biotin-GFP [1] = molecular target: T1, biotin-GFP (Aequorea victoria, UniProt P42212, A206V/E111V/F223Y/F64L/F99S/I128T/I167V/I171V/K158E/K166T/K26E/L221H/M153T/N105K/N149D/N164E/Q80R/S205T/S30R/S65T/T225N/V163A/Y145F/Y39I); settings: 15% native-PAGE
Text: To monomerize rhizavidin, the present inventors introduced various numbers (one, six, and ten) of charged and hydrophilic amino acids, which have long side chains, at the dimeric interface (FIG. 1(a) and FIG. 4).

biotin-GFP [2] = molecular target: T1, biotin-GFP; settings: for percentage of dissociated biotin conjugate after 10 h incubation with excess biotin / Dissociation rate: Biotin-GFP; for percentage of dissociated biotin conjugate after 10 h incubation with excess biotin: 23° C.; for Dissociation rate: excess biotin; for dissociation of biotin-GFP from mRA mutants (in words): mutants at E115, Q46, S23, biotin addition, 45° C. for 30 min
Procedure: After incubation at the indicated temperature (23° C., 37° C., or 45° C.) for varying time points (between 0 to 10 h), protein-conjugate mixtures were loaded onto a 15% native polyacrylamide gel. […] Data as ln(fraction bound) versus time and fitting the data to a straight line by linear regression.

[3] = immobilized biotin or biotin-GFP, avidin proteins 5 μM
Procedure: Surface Plasmon Resonance (SPR) Analysis
SPR tests were performed in a Biacore 3000 instrument using dextran CM5 gold chips (GE Healthcare) and a PBS buffer as a running solution.

HeLa cells = assay: Clustering and internalization of biotinylated cell-surface proteins; type: cell-based; settings: Cy5-labeled avidin proteins, 37° C.
Procedure: Following biotinylation, the cells were washed twice with cold PBS-CM, treated with 100 mM glycine in PBS-CM for blocking, and washed again twice with cold PBS. […] Unbound avidin proteins were removed, and media was replaced with pre-warmed DMEM (37° C.). Cells were incubated for 5, 10, or 30 m at 37° C. Cells were washed, and fixed with 4% formaldehyde in PBS for confocal imaging (ZEISS, LSM510 META). To visualize endosome or lysozome-specific proteins, cells were fixed, permeabilized, and incubated with a primary antibody: anti-Rab11 (a GTPase of recycling endosome, Abcham) or anti-LAM P1 (Lysosomal-associated membrane protein 1, Abcham). Afterward, cells were incubated with a fluorescent secondary antibody (goat anti-rabbit 555, Abcham), and images were acquired with a confocal microscopy (ZEISS, LSM510 META).

[4] = Stability / aggregation of monomerized proteins in buffered solutions; type: physicochemical; settings: up to 1 mg/ml where stated

Row | Molecule | Dissociation rate (biotin-AP) | percentage of dissociated biotin conjugate after 10 h incubation with excess biotin (biotin-DNA) | Dissociation rate (biotin-protein G) | complexes formed with biotin-GFP (biotin-GFP [1]) | percentage of dissociated biotin conjugate after 10 h incubation with excess biotin (biotin-GFP [2]) | Dissociation rate (biotin-GFP [2]; 37° C.) | Dissociation rate (biotin-GFP [2]; 45° C.) | dissociation from surface-bound biotin conjugates by SPR [3] | percentage of dissociated biotin conjugate after 10 h incubation with excess biotin (biotin-DNA; listed as monodin) | Dissociation rate (biotin-DNA; 37° C., excess biotin) | incubation time after which avidin protein was internalized (HeLa cells) | percentage of dissociated biotin conjugate after 10 h incubation with excess biotin (biotin-GFP [2]; listed as MA) | dissociation of biotin-GFP from mRA mutants (in words) (biotin-GFP [2]) | stability / aggregation in buffered solutions [4] | biotin-GFP dissociated after biotin addition (biotin-GFP [2]; excess free biotin, 37° C. for 30 min, native-PAGE)
1 | Rhizavidin (RA): natural dimeric avidin protein from Rhizobium etli; core rhizavidin SEQ ID NO: 1 (protein, amino acid sequence of truncated Rhizavidin) FDASNFKDFSSIASASSSWQNQSGSTMIIQVDSFGNVSGQYVNRAQGTGCQNSPYPLTGRVNGTFIAFSVGWNNSTENCNSATGWTGYAQVNGNNTEIVTSWNLAYEGGSGPAIEQGQDTFQYVPTTE | 4.9 ± 0.7 × 10^−5 s^−1 | 48 ± 6.1% for 10 h* | 3.2 ± 0.8 × 10^−5 s^−1 | two separated complexes | 18 ± 3.0% for 10 h* | 5.0 ± 0.1 × 10^−5 s^−1 | 6.0 ± 0.6 × 10^−5 s^−1 |  |  |  |  |  |  |  | 
2 | Monodin (MA): monomeric avidin-like protein of SEQ ID NO: 3; mRA further carrying S23H, Q46E and E115W (protein, amino acid sequence of MA, mRA further carrying S23H, Q46E and E115W) FDASNFKDFSSIASASSSWQNQHGSTMIIQVDSFGNVSGQYVNRAEGTGCQNSPYPLTGRVNGTFIDFSVKWNNSTENCNSNTQWTGYAQVNGNNTEIVTRWNLKYEGGSGPAIWQGQDTFQYVPTTE | 5.1 ± 0.7 × 10^−5 s^−1 | 22 ± 6.0% for 10 h* | 4.6 ± 1.5 × 10^−5 s^−1 |  | 6.7 ± 1.1% for 10 h* | 2.3±0.1×10^−5 s^−1 | 6.4±0.2×10^−5 s^−1 | not observed | 22% | 2.7±0.3×10^−5 s^−1 | 30 min | less than 7% | highly slowed off-rate |  | 
3 | mRA: monomeric rhizavidin with six interfacial mutations (SEQ ID NO: 2) (protein, amino acid sequence of mRA) FDASNFKDFSSIASASSSWQNQSGSTMIIQVDSFGNVSGQYVNRAQGTGCQNSPYPLTGRVNGTFIDFSVKWNNSTENCNSNTQWTGYAQVNGNNTEIVTRWNLKYEGGSGPAIEQGQDTFQYVPTTE |  |  |  |  |  |  |  |  |  |  |  |  |  | stable without any aggregation | Over 40%
4 | mRAWW: mRA with two tryptophan mutations (E115W and S23W) (protein) FDASNFKDFSSIASASSSWQNQWGSTMIIQVDSFGNVSGQYVNRAQGTGCQNSPYPLTGRVNGTFIDFSVKWNNSTENCNSNTQWTGYAQVNGNNTEIVTRWNLKYEGGSGPAIWQGQDTFQYVPTTE |  |  |  |  |  |  |  |  |  |  |  |  | the least dissociation of biotin-GFP | highly prone to aggregation | 
